# T1: CD79b on Ramos cells and on endogenous B cells of human PBMCs (human, UniProt P40259 29-229)
# T1 sequence (looked up): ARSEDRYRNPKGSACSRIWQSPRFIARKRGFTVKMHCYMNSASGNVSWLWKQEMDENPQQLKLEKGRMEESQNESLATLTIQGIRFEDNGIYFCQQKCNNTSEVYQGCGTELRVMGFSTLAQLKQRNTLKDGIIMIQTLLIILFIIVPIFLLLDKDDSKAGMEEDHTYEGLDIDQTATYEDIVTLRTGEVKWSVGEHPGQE
# Tests used:
# Test in all cases: cell-based or functional assay
# [1] = target: T1, CD79b on Ramos cells and on endogenous …
# [2] = target: T1, CD79b on Ramos cells and on endogenous …; remark: listed apart in the source
# [3] = target: T1, CD79b on Ramos cells and on endogenous …; remark: listed apart in the source
# [4] = target: T1, CD79b on Ramos cells and on endogenous …; remark: listed apart in the source
# [5] = target: T1, CD79b on Ramos cells and on endogenous …; remark: listed apart in the source
# [6] = target: T1, CD79b on Ramos cells and on endogenous …; remark: listed apart in the source
Binder,"IC50 (nM), Ramos cell killing by PBMCs (test 2), Donor 431 [1]","IC50 (nM), killing of endogenous B cells by PBMCs, Donor 367 [2]","IC50 (nM), killing of endogenous B cells by PBMCs, Donor 431 [2]","IC50 (nM), Ramos cell killing by M0 macrophages, Donor 022 [3]","IC50 (nM), Ramos cell killing by M0 macrophages, Donor 431 [3]","IC50 (nM), Ramos cell killing by PBMCs (test 3), Donor 281 [4]","IC50 (nM), Ramos cell killing by PBMCs (test 3), Donor 367 [4]","IC50 (nM), Ramos cell killing by M1 macrophages, Donor 431 [5]","IC50 (nM), Ramos cell killing by M2 macrophages, Donor 022 [6]","IC50 (nM), Ramos cell killing by M2 macrophages, Donor 431 [6]","IC50 (nM), Ramos cell killing by PBMCs (test 2), Donor 234 [1]","IC50 (nM), killing of endogenous B cells by PBMCs, Donor 234 [2]","IC50 (nM), killing of endogenous B cells by PBMCs, Donor 023 [2]","IC50 (nM), Ramos cell killing by M0 macrophages, Donor 100 [3]","IC50 (nM), Ramos cell killing by M0 macrophages, Donor 233 [3]","IC50 (nM), Ramos cell killing by PBMCs (test 3), Donor 022 [4]","IC50 (nM), Ramos cell killing by M1 macrophages, Donor 100 [5]","IC50 (nM), Ramos cell killing by M2 macrophages, Donor 100 [6]","IC50 (nM), Ramos cell killing by M2 macrophages, Donor 233 [6]"
"CD79b/5C7 (2+1 B) Fc-silenced (bispecific antibody, human IgG1, kappa, L234A L235A) heavy 1: EQQLVETGGGLIQPGGSLRLSCAASGFTINIDYWISWVRQAPGKGLEWIGIIDPGDGTTYFAIWVSGRFTISFDNSKNTVYLQMNSLRAEDTAVYFCVREFSASAYQYDLWGPGTLVTVSSASTKGPSVFPLAPSSKSTSGGTAALGCLVKDYFPEPVTVSWNSGALTSGVHTFPAVLQSSGLYSLSSVVTVPSSSLGTQTYICNVNHKPSNTKVDKKVEPKSCDKTHTCPPCPAPEAAGGPSVFLFPPKPKDTLMISRTPEVTCVVVDVSHEDPEVKFNWYVDGVEVHNAKTKPREEQYNSTYRVVSVLTVLHQDWLNGKEYKCKVSNKALGAPIEKTISKAKGQPREPQVCTLPPSRDELTKNQVSLSCAVKGFYPSDIAVEWESNGQPENNYKTTPPVLDSDGSFFLVSKLTVDKSRWQQGNVFSCSVMHEALHNRFTQKSLSLSPGK heavy 2: not shown light: ELVMTQSPATLSVSPGERATLSCRASEDIENYLAWYQQKPGQPPRLLIYRASTLSSGVPARFSGSGSGTEFTLTISSLQSEDFAVYYCQQGYRNSNVDNPFGGGTKVEIKRTVAAPSVFIFPPSDEQLKSGTASVVCLLNNFYPREAKVQWKVDNALQSGNSQESVTEQDSKDSTYSLSSTLTLSKADYEKHKVYACEVTHQGLSSPVTKSFNRGEC",0.0155 nM,0.0155 nM,0.0155 nM,0.003 nM,0.002 nM,0.0165 nM,0.0685 nM,0.005 nM,0.002 nM,0.002 nM,–,–,–,–,–,–,–,–,–
"CD79b/5C7 (2+1 B) Fc-optimized (bispecific antibody, human IgG1, kappa) heavy 1: EQQLVETGGGLIQPGGSLRLSCAASGFTINIDYWISWVRQAPGKGLEWIGIIDPGDGTTYFAIWVSGRFTISFDNSKNTVYLQMNSLRAEDTAVYFCVREFSASAYQYDLWGPGTLVTVSSASTKGPSVFPLAPSSKSTSGGTAALGCLVKDYFPEPVTVSWNSGALTSGVHTFPAVLQSSGLYSLSSVVTVPSSSLGTQTYICNVNHKPSNTKVDKKVEPKSCDKTHTCPPCPAPELLAGPSVFLFPPKPKDTLMISRTPEVTCVVVDVSHEDPEVKFNWYVDGVEVHNAKTKPREEQYNSTYRVVSVLTVLHQDWLNGKEYKCKVSNKALPLPEEKTISKAKGQPREPQVYTLPPSRDELTKNQVSLSCAVKGFYPSDIAVEWESNGQPENNYKTTPPVLDSDGSFFLVSKLTVDKSRWQQGNVFSCSVMHEALHNHYTQKSLSLSPGK heavy 2: EQQLVETGGGLIQPGGSLRLSCAASGFTINIDYWISWVRQAPGKGLEWIGIIDPGDGTTYFAIWVSGRFTISFDNSKNTVYLQMNSLRAEDTAVYFCVREFSASAYQYDLWGPGTLVTVSSASTKGPSVFPLAPSSKSTSGGTAALGCLVKDYFPEPVTVSWNSGALTSGVHTFPAVLQSSGLYSLSSVVTVPSSSLGTQTYICNVNHKPSNTKVDKKVEPKSCDKTHTCPPCPAPELLAGPSVFLFPPKPKDTLMISRTPEVTCVVVDVSHEDPEVKFNWYVDGVEVHNAKTKPREEQYNSTYRVVSVLTVLHQDWLNGKEYKCKVSNKALPLPEEKTISKAKGQPREPQVYTLPPSRDELTKNQVSLWCLVKGFYPSDIAVEWESNGQPENNYKTTPPVLDSDGSFFLYSKLTVDKSRWQQGNVFSCSVMHEALHNHYTQKSLSLSPGKGGGGSGGGGSGGGGSDIQMTQSPSSLSASVGDRVTITCQASESVDRNNRLAWFQQKPGKPPKLLIYTTSTLASGVPSRFSGSGSGTDFTLTISSLQPEDVATYYCAGYRGAHTDGDAFGGGTKVEIKGGGGSGGGGSGGGGSGGGGSEQQLVESGGGLVKPGGSLRLSCAASGFSFSRSSYMCWVRQAPGKGLEWIGCLSVGDGHTYYASWAKGRFTISKDSAKNSVYLQMNSLRAEDTAVYFCARAPSYSGDGGHGYDLWGPGTLVTVSS light: ELVMTQSPATLSVSPGERATLSCRASEDIENYLAWYQQKPGQPPRLLIYRASTLSSGVPARFSGSGSGTEFTLTISSLQSEDFAVYYCQQGYRNSNVDNPFGGGTKVEIKRTVAAPSVFIFPPSDEQLKSGTASVVCLLNNFYPREAKVQWKVDNALQSGNSQESVTEQDSKDSTYSLSSTLTLSKADYEKHKVYACEVTHQGLSSPVTKSFNRGEC",0.0104 nM,0.104 nM,0.104 nM,0.003 nM,0.004 nM,0.0112 nM,0.0186 nM,0.005 nM,0.002 nM,0.001 nM,0.0639 nM,0.0207 nM,–,–,–,–,–,–,–
"CD79b/5C7 (1+1 B) Fc-silenced (bispecific antibody, human IgG1, kappa, L234A L235A) heavy 1: EQQLVETGGGLIQPGGSLRLSCAASGFTINIDYWISWVRQAPGKGLEWIGIIDPGDGTTYFAIWVSGRFTISFDNSKNTVYLQMNSLRAEDTAVYFCVREFSASAYQYDLWGPGTLVTVSSASTKGPSVFPLAPSSKSTSGGTAALGCLVKDYFPEPVTVSWNSGALTSGVHTFPAVLQSSGLYSLSSVVTVPSSSLGTQTYICNVNHKPSNTKVDKKVEPKSCDKTHTCPPCPAPEAAGGPSVFLFPPKPKDTLMISRTPEVTCVVVDVSHEDPEVKFNWYVDGVEVHNAKTKPREEQYNSTYRVVSVLTVLHQDWLNGKEYKCKVSNKALGAPIEKTISKAKGQPREPQVCTLPPSRDELTKNQVSLSCAVKGFYPSDIAVEWESNGQPENNYKTTPPVLDSDGSFFLVSKLTVDKSRWQQGNVFSCSVMHEALHNRFTQKSLSLSPGK heavy 2: not shown light: ELVMTQSPATLSVSPGERATLSCRASEDIENYLAWYQQKPGQPPRLLIYRASTLSSGVPARFSGSGSGTEFTLTISSLQSEDFAVYYCQQGYRNSNVDNPFGGGTKVEIKRTVAAPSVFIFPPSDEQLKSGTASVVCLLNNFYPREAKVQWKVDNALQSGNSQESVTEQDSKDSTYSLSSTLTLSKADYEKHKVYACEVTHQGLSSPVTKSFNRGEC",0.0329 nM,0.0329 nM,0.0329 nM,–,0.004 nM,0.0452 nM,0.29 nM,0.005 nM,–,0.003 nM,–,–,0.0833 nM,0.006 nM,0.003 nM,0.334 nM,0.001 nM,0.002 nM,0.005 nM
"CD79b/5C7 (2+1 A) Fc-silenced (bispecific antibody, human IgG1, kappa, L234A L235A) heavy 1: EQQLVETGGGLIQPGGSLRLSCAASGFTINIDYWISWVRQAPGKGLEWIGIIDPGDGTTYFAIWVSGRFTISFDNSKNTVYLQMNSLRAEDTAVYFCVREFSASAYQYDLWGPGTLVTVSSASTKGPSVFPLAPSSKSTSGGTAALGCLVKDYFPEPVTVSWNSGALTSGVHTFPAVLQSSGLYSLSSVVTVPSSSLGTQTYICNVNHKPSNTKVDKKVEPKSCDGGGGSGGGGSGGGGSEQQLVETGGGLIQPGGSLRLSCAASGFTINIDYWISWVRQAPGKGLEWIGIIDPGDGTTYFAIWVSGRFTISFDNSKNTVYLQMNSLRAEDTAVYFCVREFSASAYQYDLWGPGTLVTVSSASTKGPSVFPLAPSSKSTSGGTAALGCLVKDYFPEPVTVSWNSGALTSGVHTFPAVLQSSGLYSLSSVVTVPSSSLGTQTYICNVNHKPSNTKVDKKVEPKSCDKTHTCPPCPAPEAAGGPSVFLFPPKPKDTLMISRTPEVTCVVVDVSHEDPEVKFNWYVDGVEVHNAKTKPREEQYNSTYRVVSVLTVLHQDWLNGKEYKCKVSNKALGAPIEKTISKAKGQPREPQVCTLPPSRDELTKNQVSLSCAVKGFYPSDIAVEWESNGQPENNYKTTPPVLDSDGSFFLVSKLTVDKSRWQQGNVFSCSVMHEALHNRFTQKSLSLSPGK heavy 2: not shown light: ELVMTQSPATLSVSPGERATLSCRASEDIENYLAWYQQKPGQPPRLLIYRASTLSSGVPARFSGSGSGTEFTLTISSLQSEDFAVYYCQQGYRNSNVDNPFGGGTKVEIKRTVAAPSVFIFPPSDEQLKSGTASVVCLLNNFYPREAKVQWKVDNALQSGNSQESVTEQDSKDSTYSLSSTLTLSKADYEKHKVYACEVTHQGLSSPVTKSFNRGEC",–,–,–,0.003 nM,–,–,–,–,0.003 nM,–,–,–,–,0.002 nM,–,–,0.001 nM,0.001 nM,–

# — patent US20260201033A1 (LTZ THERAPEUTICS, published 2026)
